According to patent US20240392037A1 (UNIVERSITY OF PITTSBURGH OF THE COMMONWEALTH SYSTEM OF …, published 2024):

Legend:
[1] = target: T1, human neutrophil elastase (NE) polypeptide (human, UniProt P08246 28-267, limits assumed); experiment: ELISA, NE coated at 50 ng/well, anti-human IgG1 Fc-HRP detection
T1 construct: also called hNE; rhNE
T1 sequence: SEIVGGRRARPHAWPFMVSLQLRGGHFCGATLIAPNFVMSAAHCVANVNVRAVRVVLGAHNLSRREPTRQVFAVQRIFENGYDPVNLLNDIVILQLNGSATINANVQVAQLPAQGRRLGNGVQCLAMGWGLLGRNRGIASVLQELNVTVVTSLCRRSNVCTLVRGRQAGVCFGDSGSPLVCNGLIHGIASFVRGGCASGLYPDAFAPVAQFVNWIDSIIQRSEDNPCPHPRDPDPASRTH
Experimental: (§1) The NE polypeptide was coated in 96-well microplates at 50 ng/well in PBS at 4° C. over-night and blocked with 5% milk in PBS for 2 hours at room temperature. For the soluble Fab/VH binding assay, the 3-fold serially diluted Fab/VH were added and incubated for 1 hour at 37° C. and further incubated with anti-FLAG M2-peroxidase (HRP) antibody (A8592, Sigma-Aldrich) for another 1 hour. For the IgG₁ binding assay, HRP conjugated goat anti-human IgG₁ Fc (Sigma-Aldrich) was used for detection. Finally, the reaction was developed by 3,3′,5,5′-tetramethylbenzidine (TMB, Sigma-Aldrich) and stopped by TMB stop buffer (ScyTek laboratories). Absorbance was recorded at 450 nm. The experiment was performed in duplicate.

[2] = target: T1, human neutrophil elastase (NE) …; experiment: ELISA, NE coated at 50 ng/well
Experimental: (§2) FIG. 12. Specificity of VH/VH-Fc and Fab/IgG1 with recombinant human NE. (A and B) Binding of Fab 1C10 (A) and VH 1D1.43 (B) to rhNE, rhMPO, and PR3 measured by ELISA. (C and D) Binding of IgG1 1C10 (C) and VH-Fc 1D1.43 (D) to rhNE, rhMPO, BSA, and PR3 measured by ELISA. rhNE, rhMPO, BSA, and PR3 were coated in 96-well microplates at 50 ng/well. Experiments were performed in duplicate. Values were reported as the mean±SD.
as §1

BSA [3] = target: T2, BSA (UniProt P02769 25-607); experiment: ELISA, BSA coated at 50 ng/well
Experimental: as §2, §1

[4] = target: T1, human neutrophil elastase (NE) …; experiment: cell-based or functional assay
Proteinase 3 [5] = target: T3, Proteinase 3 (UniProt P24158 28-248, limits assumed); experiment: ELISA, PR3 coated at 50 ng/well
T3 construct: Specificity control, coated at 50 ng/well in ELISA; also called PR3
T3 sequence (looked up): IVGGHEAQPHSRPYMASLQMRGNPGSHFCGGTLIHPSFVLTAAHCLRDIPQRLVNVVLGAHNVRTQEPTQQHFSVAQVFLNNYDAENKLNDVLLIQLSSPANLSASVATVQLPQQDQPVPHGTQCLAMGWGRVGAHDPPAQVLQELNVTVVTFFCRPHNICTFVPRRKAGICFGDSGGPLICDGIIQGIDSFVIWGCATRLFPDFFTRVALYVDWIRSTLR
Experimental: as §2, §1

[6] = target: T4, recombinant human myeloperoxidase protein (human, UniProt P05164 49-745, limits assumed); experiment: ELISA, rhMPO coated at 50 ng/well
T4 construct: Specificity control, coated at 50 ng/well in ELISA; also called rhMPO
T4 sequence (looked up): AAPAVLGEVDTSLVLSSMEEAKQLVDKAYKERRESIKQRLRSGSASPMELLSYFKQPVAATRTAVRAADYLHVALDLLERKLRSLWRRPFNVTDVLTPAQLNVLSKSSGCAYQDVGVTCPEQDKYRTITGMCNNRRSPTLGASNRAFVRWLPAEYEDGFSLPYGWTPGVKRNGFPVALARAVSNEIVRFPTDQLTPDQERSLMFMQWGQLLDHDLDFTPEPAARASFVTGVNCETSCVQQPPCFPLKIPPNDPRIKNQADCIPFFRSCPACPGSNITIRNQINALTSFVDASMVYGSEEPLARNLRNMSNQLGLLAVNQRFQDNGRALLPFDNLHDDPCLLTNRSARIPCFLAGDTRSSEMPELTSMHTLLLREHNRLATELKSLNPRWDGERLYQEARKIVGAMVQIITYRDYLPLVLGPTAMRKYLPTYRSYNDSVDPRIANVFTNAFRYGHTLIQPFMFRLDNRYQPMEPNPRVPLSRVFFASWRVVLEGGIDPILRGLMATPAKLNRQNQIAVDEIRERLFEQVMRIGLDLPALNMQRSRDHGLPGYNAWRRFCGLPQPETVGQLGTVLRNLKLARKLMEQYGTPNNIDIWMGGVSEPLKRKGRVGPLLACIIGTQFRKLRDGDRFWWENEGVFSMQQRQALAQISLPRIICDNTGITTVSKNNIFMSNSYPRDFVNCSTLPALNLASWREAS
Experimental: as §2, §1

[7] = target: T4, recombinant human myeloperoxidase …; experiment: ELISA, rhMPO coated at 50 ng/well, anti-FLAG-HRP detection
[8] = target: T1, human neutrophil elastase (NE) …; experiment: ELISA, NE coated at 50 ng/well, anti-FLAG-HRP detection
Experimental: as §1

Proteinase 3 [9] = target: T3, Proteinase 3; experiment: ELISA, PR3 coated at 50 ng/well, anti-FLAG-HRP detection
[10] = target: T1, human neutrophil elastase (NE) …; experiment: ELISA, NE coated at 50 ng/well, anti-FLAG-HRP detection; remark: listed apart in the source
Experimental: as §2, §1

[11] = target: T4, recombinant human myeloperoxidase …; experiment: ELISA, rhMPO coated at 50 ng/well, anti-FLAG-HRP detection; remark: listed apart in the source
Experimental: as §2, §1

Proteinase 3 [12] = target: T3, Proteinase 3; experiment: ELISA, PR3 coated at 50 ng/well, anti-FLAG-HRP detection; remark: listed apart in the source
Experimental: as §2, §1

[13] = target: T1, human neutrophil elastase (NE) …; experiment: BLItz biolayer interferometry, NE-Biotin on streptavidin biosensor
Experimental: The affinity and avidity of anti-hNE binders were detected by biolayer interferometry BLItz (ForteBio, Menlo Park, CA). Briefly, Dulbecco's PBS (DPBS) was used to establish baseline for 30 seconds, and streptavidin biosensor (ForteBio) was coated with 16.7 μg/mL recombinant NE-Biotin for 2 minutes. […] Antigen coated biosensors with PBS served as reference controls. The dissociation was monitored in DPBS for 4 minutes.

BSA [14] = target: T2, BSA; experiment: ELISA, BSA coated at 50 ng/well, HRP anti-human IgG1 Fc detection
Experimental: as §2, §1

Proteinase 3 [15] = target: T3, Proteinase 3; experiment: ELISA, PR3 coated at 50 ng/well, HRP anti-human IgG1 Fc detection
[16] = target: T4, recombinant human myeloperoxidase …; experiment: ELISA, rhMPO coated at 50 ng/well, HRP anti-human IgG1 Fc detection

T2 sequence (P02769 25-607 limits assumed): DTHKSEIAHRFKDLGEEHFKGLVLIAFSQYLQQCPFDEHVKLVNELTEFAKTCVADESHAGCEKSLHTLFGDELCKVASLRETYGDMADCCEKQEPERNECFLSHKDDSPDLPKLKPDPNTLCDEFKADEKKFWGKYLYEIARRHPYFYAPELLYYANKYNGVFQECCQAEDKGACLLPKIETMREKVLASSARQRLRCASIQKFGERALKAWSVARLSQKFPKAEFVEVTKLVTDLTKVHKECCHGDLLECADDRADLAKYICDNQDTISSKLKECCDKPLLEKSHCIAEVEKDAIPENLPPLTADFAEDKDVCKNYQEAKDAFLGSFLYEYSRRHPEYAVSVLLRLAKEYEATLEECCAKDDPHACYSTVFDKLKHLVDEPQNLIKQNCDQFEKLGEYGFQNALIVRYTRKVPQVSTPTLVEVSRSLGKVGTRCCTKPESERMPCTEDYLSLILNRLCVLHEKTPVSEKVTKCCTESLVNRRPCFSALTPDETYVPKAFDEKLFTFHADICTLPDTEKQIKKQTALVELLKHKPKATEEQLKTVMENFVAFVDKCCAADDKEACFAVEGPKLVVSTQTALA

B1: VH-Fc 1D1.43 (Fc fusion)
chain: EVQLVESGGGVVQPGRSLRLSCAASGFTFSNYAMHWVRQAPGKGLEWVAVISYDGSNKYYADSVKGRFTISRDDSTNTLYLQMNNLRAEDTAVYYCAKDLPWEWELDYWGQGTLVTVSS
notes: VH 1D1.43 converted to a bivalent antibody by fusion to human IgG1 Fc; also called VH-Fc ID1.43; not shown: human IgG1 Fc
EC50 [1]: 0.66 nM
EC50 (read off the curve) [2]: ~0.7 nM
binding result (BSA [3]): no binding (tested: about 1,000 nM)
IC50 of inhibition of neutrophil elastase enzyme activity; fold change against the VH form (VH 1D1.43) [4]: 10 fold
binding result (Proteinase 3 [5]): no binding (tested: about 1,000 nM)
binding result [6]: no binding (tested: about 1,000 nM)

B2: VH 1D1.43 (other)
VH: B1 chain
notes: Expressed in E. coli, purified on Ni-NTA and detected with anti-FLAG antibody; also called Clone #2; #2 (VH)
binding result [7]: no binding (tested: about 30,000 nM)
EC50 [8]: 4.3 nM
binding result (Proteinase 3 [9]): no binding (tested: about 30,000 nM)
EC50 (read off the curve) [10]: ~10 nM

B3: Fab 1C10 (Fab, V domains shown)
VH: QVQLVESGGGLVKPGGSLRLSCAASGFTFSDYYMSWIRQAPGKGLEWVSYISSSGSTIYYADSVKGRFTISRDNAKNSLYLQMNSLRAEDTAVYYCARVGGDFWSGFLMDVWGQGTTVTVSS
VL: DIQMTQSPSSLSASVGDRVTITCRASQSISSYLNWYQQKPGKAPKLLIYAASSLQSGVPSRFSGSGSGTDFTLTISSLQPEDVAVYYCMQALQTPLTFGQGTKLEIKR
notes: Human Fab from a phage library; also called Clone #1; #1 (Fab)
binding result [11]: no binding (tested: about 7,000 nM)
IC50 of inhibition of neutrophil elastase enzyme activity [4]: ~5000 nM
binding result (Proteinase 3 [12]): no binding (tested: about 7,000 nM)
EC50 [8]: 16.3 nM
EC50 (read off the curve) [10]: ~3 nM
Kd [13]: 8.5 nM

B4: IgG1 1C10 (antibody, V domains shown)
VH: B3 VH
VL: B3 VL
notes: Fab 1C10 converted to a bivalent human IgG1 (heavy and light chains re-cloned into the pcDNA-IgG1 vector, expressed in Expi293 cells); also called IgG 1C10; 1C10 IgG1
EC50 [1]: 0.4 nM
IC50 of inhibition of neutrophil elastase enzyme activity [4]: 1800 nM
binding result (BSA [14]): no binding (tested: about 200 nM)
binding result (Proteinase 3 [15]): no binding (tested: about 200 nM)
binding result [16]: no binding (tested: about 200 nM)
Kd [13]: 0.14 nM
